Read-outs that look alike come from different tables or passages of the source.
Experiments:
[1] = target: IKK1 (1–676) (human) (UniProt O15111); test: SEC
[2] = target: purified human IKK1 used for single-particle cryo-EM (human) (UniProt O15111); test: cryo-EM structure
[3] = target: purified human IKK1 used for single-particle cryo-EM (human) (UniProt O15111); test: cryo-EM structure; remark: listed apart in the source
[4] = target: T1, HA-IKK1 WT overexpressed in 293T cells (human), O15111; test: SEC; conditions: remark: other sources report otherwise
T1 chain: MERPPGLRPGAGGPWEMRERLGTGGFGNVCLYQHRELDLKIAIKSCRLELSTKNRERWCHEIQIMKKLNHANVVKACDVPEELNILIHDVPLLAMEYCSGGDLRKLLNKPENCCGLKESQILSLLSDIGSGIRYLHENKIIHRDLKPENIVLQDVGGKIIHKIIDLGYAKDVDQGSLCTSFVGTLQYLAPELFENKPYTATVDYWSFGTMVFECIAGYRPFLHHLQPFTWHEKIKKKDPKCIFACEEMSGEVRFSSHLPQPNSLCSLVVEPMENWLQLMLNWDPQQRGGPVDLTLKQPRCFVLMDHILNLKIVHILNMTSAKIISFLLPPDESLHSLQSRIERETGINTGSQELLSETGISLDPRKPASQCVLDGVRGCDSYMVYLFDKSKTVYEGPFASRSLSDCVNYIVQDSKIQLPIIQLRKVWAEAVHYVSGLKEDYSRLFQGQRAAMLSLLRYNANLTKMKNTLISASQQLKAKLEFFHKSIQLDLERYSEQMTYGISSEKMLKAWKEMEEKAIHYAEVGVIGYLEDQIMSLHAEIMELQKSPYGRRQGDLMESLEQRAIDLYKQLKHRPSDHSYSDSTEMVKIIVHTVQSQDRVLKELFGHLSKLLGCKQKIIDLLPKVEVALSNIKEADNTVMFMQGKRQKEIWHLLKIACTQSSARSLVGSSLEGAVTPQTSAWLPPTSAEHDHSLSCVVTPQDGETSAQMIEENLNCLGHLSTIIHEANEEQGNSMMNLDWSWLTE

[5] = target: the molecule itself; test: SEC
[6] = target: the molecule itself; test: SEC; remark: listed apart in the source
[7] = target: T2, human IKK1 (residues 10–667; EE) (human), O15111; test: crystal structure; conditions: remark: other sources report otherwise
T2 chain: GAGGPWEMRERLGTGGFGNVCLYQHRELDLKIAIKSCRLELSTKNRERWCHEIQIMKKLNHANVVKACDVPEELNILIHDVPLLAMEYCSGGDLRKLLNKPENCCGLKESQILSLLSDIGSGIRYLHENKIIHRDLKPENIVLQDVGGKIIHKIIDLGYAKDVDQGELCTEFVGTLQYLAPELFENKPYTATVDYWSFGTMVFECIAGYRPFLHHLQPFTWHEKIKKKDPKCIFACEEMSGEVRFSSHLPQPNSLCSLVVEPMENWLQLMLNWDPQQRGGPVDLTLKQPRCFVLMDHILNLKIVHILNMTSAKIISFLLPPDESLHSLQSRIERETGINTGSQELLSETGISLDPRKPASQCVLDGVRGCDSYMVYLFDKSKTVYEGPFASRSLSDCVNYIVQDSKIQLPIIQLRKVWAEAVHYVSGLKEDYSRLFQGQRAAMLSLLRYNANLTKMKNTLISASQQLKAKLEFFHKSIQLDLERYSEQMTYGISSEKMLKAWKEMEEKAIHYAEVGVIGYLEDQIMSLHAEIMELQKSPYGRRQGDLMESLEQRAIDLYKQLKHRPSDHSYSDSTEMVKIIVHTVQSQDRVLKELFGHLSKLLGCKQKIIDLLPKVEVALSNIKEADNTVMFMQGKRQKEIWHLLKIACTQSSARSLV

[8] = target: T2, human IKK1 (residues 10–667; EE) …; test: crystal structure; conditions: remark: other sources report otherwise

Molecule: IKK1 (1–676) (from UniProt O15111 1-676) (domain or fragment)
- stoichiometry N [1]: 2

Molecule: purified human IKK1 used for single-particle cryo-EM (from UniProt O15111 10-660) (enzyme)
- percent of particles not conforming to dimers (hexamer) [2]: 2%
- stoichiometry N [2]: 6
- stoichiometry N [3]: 2

B1: HA-IKK1 WT overexpressed in 293T cells, O15111 1-745 (enzyme)
chain: MERPPGLRPGAGGPWEMRERLGTGGFGNVCLYQHRELDLKIAIKSCRLELSTKNRERWCHEIQIMKKLNHANVVKACDVPEELNILIHDVPLLAMEYCSGGDLRKLLNKPENCCGLKESQILSLLSDIGSGIRYLHENKIIHRDLKPENIVLQDVGGKIIHKIIDLGYAKDVDQGSLCTSFVGTLQYLAPELFENKPYTATVDYWSFGTMVFECIAGYRPFLHHLQPFTWHEKIKKKDPKCIFACEEMSGEVRFSSHLPQPNSLCSLVVEPMENWLQLMLNWDPQQRGGPVDLTLKQPRCFVLMDHILNLKIVHILNMTSAKIISFLLPPDESLHSLQSRIERETGINTGSQELLSETGISLDPRKPASQCVLDGVRGCDSYMVYLFDKSKTVYEGPFASRSLSDCVNYIVQDSKIQLPIIQLRKVWAEAVHYVSGLKEDYSRLFQGQRAAMLSLLRYNANLTKMKNTLISASQQLKAKLEFFHKSIQLDLERYSEQMTYGISSEKMLKAWKEMEEKAIHYAEVGVIGYLEDQIMSLHAEIMELQKSPYGRRQGDLMESLEQRAIDLYKQLKHRPSDHSYSDSTEMVKIIVHTVQSQDRVLKELFGHLSKLLGCKQKIIDLLPKVEVALSNIKEADNTVMFMQGKRQKEIWHLLKIACTQSSARSLVGSSLEGAVTPQTSAWLPPTSAEHDHSLSCVVTPQDGETSAQMIEENLNCLGHLSTIIHEANEEQGNSMMNLDWSWLTE
- stoichiometry N [4]: 2

B2: HA-IKK1 HY (H578A Y580A) overexpressed in 293T cells (enzyme, human, UniProt O15111 1-745, looked up)
chain: MERPPGLRPGAGGPWEMRERLGTGGFGNVCLYQHRELDLKIAIKSCRLELSTKNRERWCHEIQIMKKLNHANVVKACDVPEELNILIHDVPLLAMEYCSGGDLRKLLNKPENCCGLKESQILSLLSDIGSGIRYLHENKIIHRDLKPENIVLQDVGGKIIHKIIDLGYAKDVDQGSLCTSFVGTLQYLAPELFENKPYTATVDYWSFGTMVFECIAGYRPFLHHLQPFTWHEKIKKKDPKCIFACEEMSGEVRFSSHLPQPNSLCSLVVEPMENWLQLMLNWDPQQRGGPVDLTLKQPRCFVLMDHILNLKIVHILNMTSAKIISFLLPPDESLHSLQSRIERETGINTGSQELLSETGISLDPRKPASQCVLDGVRGCDSYMVYLFDKSKTVYEGPFASRSLSDCVNYIVQDSKIQLPIIQLRKVWAEAVHYVSGLKEDYSRLFQGQRAAMLSLLRYNANLTKMKNTLISASQQLKAKLEFFHKSIQLDLERYSEQMTYGISSEKMLKAWKEMEEKAIHYAEVGVIGYLEDQIMSLHAEIMELQKSPYGRRQGDLMESLEQRAIDLYKQLKHRPSDASASDSTEMVKIIVHTVQSQDRVLKELFGHLSKLLGCKQKIIDLLPKVEVALSNIKEADNTVMFMQGKRQKEIWHLLKIACTQSSARSLVGSSLEGAVTPQTSAWLPPTSAEHDHSLSCVVTPQDGETSAQMIEENLNCLGHLSTIIHEANEEQGNSMMNLDWSWLTE
- stoichiometry N [5]: 2

B3: IKK2 (1–700) (domain or fragment, UniProt O14920 1-700, looked up)
chain: MSWSPSLTTQTCGAWEMKERLGTGGFGNVIRWHNQETGEQIAIKQCRQELSPRNRERWCLEIQIMRRLTHPNVVAARDVPEGMQNLAPNDLPLLAMEYCQGGDLRKYLNQFENCCGLREGAILTLLSDIASALRYLHENRIIHRDLKPENIVLQQGEQRLIHKIIDLGYAKELDQGSLCTSFVGTLQYLAPELLEQQKYTVTVDYWSFGTLAFECITGFRPFLPNWQPVQWHSKVRQKSEVDIVVSEDLNGTVKFSSSLPYPNNLNSVLAERLEKWLQLMLMWHPRQRGTDPTYGPNGCFKALDDILNLKLVHILNMVTGTIHTYPVTEDESLQSLKARIQQDTGIPEEDQELLQEAGLALIPDKPATQCISDGKLNEGHTLDMDLVFLFDNSKITYETQISPRPQPESVSCILQEPKRNLAFFQLRKVWGQVWHSIQTLKEDCNRLQQGQRAAMMNLLRNNSCLSKMKNSMASMSQQLKAKLDFFKTSIQIDLEKYSEQTEFGITSDKLLLAWREMEQAVELCGRENEVKLLVERMMALQTDIVDLQRSPMGRKQGGTLDDLEEQARELYRRLREKPRDQRTEGDSQEMVRLLLQAIQSFEKKVRVIYTQLSKTVVCKQKALELLPKVEEVVSLMNEDEKTVVRLQEKRQKELWNLLKIACSKVRGPVSGSPDSMNASRLSQPGQLMSQPSTASNSLPE
- stoichiometry N [6]: 2

B4: human IKK1 (residues 10–667; EE), O15111 10-667 (domain or fragment)
chain: GAGGPWEMRERLGTGGFGNVCLYQHRELDLKIAIKSCRLELSTKNRERWCHEIQIMKKLNHANVVKACDVPEELNILIHDVPLLAMEYCSGGDLRKLLNKPENCCGLKESQILSLLSDIGSGIRYLHENKIIHRDLKPENIVLQDVGGKIIHKIIDLGYAKDVDQGELCTEFVGTLQYLAPELFENKPYTATVDYWSFGTMVFECIAGYRPFLHHLQPFTWHEKIKKKDPKCIFACEEMSGEVRFSSHLPQPNSLCSLVVEPMENWLQLMLNWDPQQRGGPVDLTLKQPRCFVLMDHILNLKIVHILNMTSAKIISFLLPPDESLHSLQSRIERETGINTGSQELLSETGISLDPRKPASQCVLDGVRGCDSYMVYLFDKSKTVYEGPFASRSLSDCVNYIVQDSKIQLPIIQLRKVWAEAVHYVSGLKEDYSRLFQGQRAAMLSLLRYNANLTKMKNTLISASQQLKAKLEFFHKSIQLDLERYSEQMTYGISSEKMLKAWKEMEEKAIHYAEVGVIGYLEDQIMSLHAEIMELQKSPYGRRQGDLMESLEQRAIDLYKQLKHRPSDHSYSDSTEMVKIIVHTVQSQDRVLKELFGHLSKLLGCKQKIIDLLPKVEVALSNIKEADNTVMFMQGKRQKEIWHLLKIACTQSSARSLV
- stoichiometry N [7]: 6
- stoichiometry N [8]: 2

From article PMC5508515 (Cell reports, 2016)
